To fix the notation:
B1: Far upstream element-binding protein 3, residues 75 to 150; numbered along this chain, Q96I24 (parent)
chain: RTVITEEFKVPDKMVGFIIGRGGEQISRIQAESGCKIQIASESSGIPERPCVLTGTPESIEQAKRLLGQIVDRCRN

± gives the uncertainty stated by the source.

This is an account of results in the Human Domainome abundance scans (Beltran et al. 2025).

In the data set the parent is B1. In words: abundance fitness (aPCA) (normalised: wild type 0, dead -1); higher = more abundant; growth selection in yeast, the domain comes from the species named. As to conditions: Homo sapiens.
As for RTVITEEFKVPDKMVGFIIGRGGEQISRIQAESGCKIQIASESSGIPERPCVLTGTPESIEQAKRLLGQIVDRWRN [C74W], the abundance fitness is -0.022 ± 0.031. On to RTVITEEFKVPDKMVGFIIGRGGEQISRIQAESGCKIQIASESSGIPERPCVLTGTPESIEQAKRLLGQIVDRHRN [C74H], for which the abundance fitness turned out to be 0.031 ± 0.049.

Turning to RTVITEEFKVPDKMVGFIIGRGGEQISRIQAESGCKIQIASESSGIPERPCVLTGTPESIEQAKRLLGQIVDRKRN [C74K], the abundance fitness is -0.027 ± 0.054. RTVITEEFKVPDKMVGFIIGRGGEQISRIQAESGCKIQIASESSGIPERPCVLTGTPESIEQAKRLLGQIVDRERN [C74E]: the abundance fitness was -0.041 ± 0.037. With RTVITEEFKVPDKMVGFIIGRGGEQISRIQAESGCKIQIASESSGIPERPCVLTGTPESIEQAKRLLGQIVDRIRN [C74I], the abundance fitness was -0.057 ± 0.071. In the case of RTVITEEFKVPDKMVGFIIGRGGEQISRIQAESGCKIQIASESSGIPERPCVLTGTPESIEQAKRLLGQIVDRARN [C74A], the abundance fitness turned out to be 0.02 ± 0.029. With RTVITEEFKVPDKMVGFIIGRGGEQISRIQAESGCKIQIASESSGIPERPCVLTGTPESIEQAKRLLGQIVDRGRN [C74G], the abundance fitness is 0.041 ± 0.027.

Regarding RTVITEEFKVPDKMVGFIIGRGGEQISRIQAESGCKIQIASESSGIPERPCVLTGTPESIEQAKRLLGQIVDRNRN [C74N], the abundance fitness was -0.007 ± 0.071. Regarding RTVITEEFKVPDKMVGFIIGRGGEQISRIQAESGCKIQIASESSGIPERPCVLTGTPESIEQAKRLLGQIVDRMRN [C74M], the abundance fitness is -0.021 ± 0.042. RTVITEEFKVPDKMVGFIIGRGGEQISRIQAESGCKIQIASESSGIPERPCVLTGTPESIEQAKRLLGQIVDRYRN [C74Y]: the abundance fitness is -0.126 ± 0.059. In the case of RTVITEEFKVPDKMVGFIIGRGGEQISRIQAESGCKIQIASESSGIPERPCVLTGTPESIEQAKRLLGQIVDRVRN [C74V], the abundance fitness is -0.037 ± 0.03. With RTVITEEFKVPDKMVGFIIGRGGEQISRIQAESGCKIQIASESSGIPERPCVLTGTPESIEQAKRLLGQIVDRTRN [C74T], the abundance fitness came to 0.004 ± 0.036. In the case of RTVITEEFKVPDKMVGFIIGRGGEQISRIQAESGCKIQIASESSGIPERPCVLTGTPESIEQAKRLLGQIVDRRRN [C74R], the abundance fitness was 0.008 ± 0.027. Under RTVITEEFKVPDKMVGFIIGRGGEQISRIQAESGCKIQIASESSGIPERPCVLTGTPESIEQAKRLLGQIVDRDRN [C74D] stands -0.068 ± 0.058; under RTVITEEFKVPDKMVGFIIGRGGEQISRIQAESGCKIQIASESSGIPERPCVLTGTPESIEQAKRLLGQIVDRQRN [C74Q], -0.002 ± 0.04; under RTVITEEFKVPDKMVGFIIGRGGEQISRIQAESGCKIQIASESSGIPERPCVLTGTPESIEQAKRLLGQIVDRSRN [C74S], -0.01 ± 0.032.

For the variant RTVITEEFKVPDKMVGFIIGRGGEQISRIQAESGCKIQIASESSGIPERPCVLTGTPESIEQAKRLLGQIVDNCRN [R73N], the abundance fitness was 0.037 ± 0.066. Next, RTVITEEFKVPDKMVGFIIGRGGEQISRIQAESGCKIQIASESSGIPERPCVLTGTPESIEQAKRLLGQIVDSCRN [R73S]: -0.04 ± 0.033; RTVITEEFKVPDKMVGFIIGRGGEQISRIQAESGCKIQIASESSGIPERPCVLTGTPESIEQAKRLLGQIVDWCRN [R73W]: -0.089 ± 0.039.

Consider RTVITEEFKVPDKMVGFIIGRGGEQISRIQAESGCKIQIASESSGIPERPCVLTGTPESIEQAKRLLGQIVDVCRN [R73V], for which the abundance fitness was -0.037 ± 0.033. Under RTVITEEFKVPDKMVGFIIGRGGEQISRIQAESGCKIQIASESSGIPERPCVLTGTPESIEQAKRLLGQIVDYCRN [R73Y] stands -0.151 ± 0.058; under RTVITEEFKVPDKMVGFIIGRGGEQISRIQAESGCKIQIASESSGIPERPCVLTGTPESIEQAKRLLGQIVDPCRN [R73P], -0.001 ± 0.045. For the variant RTVITEEFKVPDKMVGFIIGRGGEQISRIQAESGCKIQIASESSGIPERPCVLTGTPESIEQAKRLLGQIVDTCRN [R73T], the abundance fitness is 0.019 ± 0.042.

For RTVITEEFKVPDKMVGFIIGRGGEQISRIQAESGCKIQIASESSGIPERPCVLTGTPESIEQAKRLLGQIVDMCRN [R73M], the abundance fitness was -0.048 ± 0.042. With RTVITEEFKVPDKMVGFIIGRGGEQISRIQAESGCKIQIASESSGIPERPCVLTGTPESIEQAKRLLGQIVDRCQN [R75Q], the abundance fitness was -0.026 ± 0.052. Next, RTVITEEFKVPDKMVGFIIGRGGEQISRIQAESGCKIQIASESSGIPERPCVLTGTPESIEQAKRLLGQIVDRCHN [R75H]: -0.006 ± 0.069; RTVITEEFKVPDKMVGFIIGRGGEQISRIQAESGCKIQIASESSGIPERPCVLTGTPESIEQAKRLLGQIVDRCTN [R75T]: 0.052 ± 0.044. Take RTVITEEFKVPDKMVGFIIGRGGEQISRIQAESGCKIQIASESSGIPERPCVLTGTPESIEQAKRLLGQIVDRCLN [R75L]: the abundance fitness was -0.039 ± 0.035.

In the case of RTVITEEFKVPDKMVGFIIGRGGEQISRIQAESGCKIQIASESSGIPERPCVLTGTPESIEQAKRLLGQIVDRCIN [R75I], the abundance fitness is -0.107 ± 0.067. Under RTVITEEFKVPDKMVGFIIGRGGEQISRIQAESGCKIQIASESSGIPERPCVLTGTPESIEQAKRLLGQIVDRCDN [R75D] stands -0.082 ± 0.058; under RTVITEEFKVPDKMVGFIIGRGGEQISRIQAESGCKIQIASESSGIPERPCVLTGTPESIEQAKRLLGQIVDRCPN [R75P], -0.025 ± 0.038; under RTVITEEFKVPDKMVGFIIGRGGEQISRIQAESGCKIQIASESSGIPERPCVLTGTPESIEQAKRLLGQIVDRCGN [R75G], 0.038 ± 0.026. For RTVITEEFKVPDKMVGFIIGRGGEQISRIQAESGCKIQIASESSGIPERPCVLTGTPESIEQAKRLLGQIVDRCNN [R75N], the abundance fitness was -0.126 ± 0.081. On to RTVITEEFKVPDKMVGFIIGRGGEQISRIQAESGCKIQIASESSGIPERPCVLTGTPESIEQAKRLLGQIVDRCVN [R75V], for which the abundance fitness came to 0.008 ± 0.035. RTVITEEFKVPDKMVGFIIGRGGEQISRIQAESGCKIQIASESSGIPERPCVLTGTPESIEQAKRLLGQIVDRCWN [R75W]: the abundance fitness stood at 0.007 ± 0.034.

For the variant RTVITEEFKVPDKMVGFIIGRGGEQISRIQAESGCKIQIASESSGIPERPCVLTGTPESIEQAKRLLGQIVDRCMN [R75M], the abundance fitness came to 0.009 ± 0.051.
